In the NTF2 design screens of Basanta et al. (2020):

assay: protease stability score; higher = more stable; yeast display proteolysis, trypsin and chymotrypsin;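 further: log10 excess protease needed over predicted unfolded state with 0 meaning unfolded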

Compared with “DDDKRKQFEDYMRKFKTGNEEDLVRNMDKDVDVHIGDKTWDGREEAAHELAQHRRHARIEYKSLSVDDKGDKLQVKMQYVDEHNGTPRDSHVVATLRLKNGKIRMIDVKRDG”, “DDDKVRESVNNMLHAMQNGDHDRFRKMADENVRIEVGDKEYKGREKAAEHIKEVVDRVDHIQVESVKVHNGRARANLNMVVNGHSARATLNVNANNGRVVVVEMDPDQIRKAES” is lower in protease stability score: -0.17 for the first, -0.629 for the second.

First: DDDKVTKVNELLENIKRGNEDDIRDLMDPNARVRIGDKDFHGREEVSDTWKQIRDTAHLSFTDVKNDDQGDHVYVRARFHQTHNGKPDTSVLHLEVTIRNGKIKEAQFHETP
Second: DDDLKRKVHKFVEDWKDGDPHRLNHMADEDVRFQVGDKEIHGRKQMHEEVDKEKKEMRRHIDHLELDNQGNTVRVRFELTFTHNGKPFKVDVTIDMEFDGDRLKQAVQRVPREDQTKVKN
The protease stability score of the first is higher: -0.159 for the first, -0.209 for the second.

First: DDDLRRRLHEFWENMQEGDEKRLREMADPNVRFEVGDKSIHGREEFARKVKELHEQQRFSVRIDRMDNQGNKVDITFHVTQKHNGRPNRYTARVTITAHNGKIKSVSVDISQ
Second: DDDLTRKVEKFMRNVQKGNEEELKKMMDPNVHAEVGDKVYHGREDAVEKRVTHYHEQNWRYEDIDLKVEGDRAKAKVVRVVNINGKPIRFEFSVNMRFHNGKITRINNDLPEEVLHKLKR
The protease stability score of the first is higher: 0.391 for the first, 0.118 for the second.

Going from “DDDLVRKAKKFYEIVETGDEDKIVKMLDKDAQINVGDRRIDGREDIKTFEHKQVQHMRIEFDSVHASHQGDKVRVRAQMTVDVNGNPITYQAEFVFNVKNGRIKNLEQRVDEKEMKKIKS” to “DDDLVRKLNHMVKVMQNGDPDKIVDQMDPNARLIVGDKNVHGRDEARRFMEKVNKHLRFEIKSVTLHDRPNNANADVDANFHINGRPVRLKYIIVVSVHNGRIKEVQLRLSEDQERKLEK”, the protease stability score rises from 0.007 to 0.71.

Compared with “DDDNARELVKRIMKAWQTGDEKELNKNMDPNVRIEVGDKTWHGREDVSKMARELRKQVDSIEVKDVEVQGNHANADVVQVVNGEQKHYLVIIDFHNGKARRLKIEER”, “DDDNFRRFKDLQHAENRGDPDRVMELVDPNAHIRVGNTTLKGTKQIKDWVEHILKNWDEQLHSVDEKFQGNHITARYQMEINVNGEPEHFDVTQMATLDNGKIQNRVVRVSEDDLENIER” is lower in protease stability score: 2.11 for the first, -0.247 for the second.

Compared with “DDDNKRKAETYMKNLHTGDPDKATEYMDKDAKIQYGDKSVHGRHQWREEIERRRKELRFTVDLHRLHVQGEKFDLKYIEHNNHNGNPKSQSASVTYRMHNGRVHSIQYSYTK”, “DDDNKRVVERFLRAQQEGDPDTAKENADENAHFHYGDRRITGRESYAEWMERRKKESRVEFRIDQMNVSGDRIDVHFQMQVRHNGRPERFEARMVIKITNGHIVQVRVEKKE” is higher in protease stability score: -0.237 for the first, 0.207 for the second.

Going from “DDDNLKRQNEDVNRAVQHGDEKKVADMADPNVKVYYGDKEIHGREKVKEWWKRLADRADSFTVVDIELQGEKIRVRVKANIDGKHVDMEFEAHASNGRVKKMHINPDQFRQLRS” to “DDDNVRKMNEMFNALETGDEHKLKKQFDPNAHIRIGDQTYHGMDDYARKFRHKRNNMRQSYESYTITNEGDKVTIEATFSRRHNGTPERKKVVVEVDIRGDQAKSATVQDDR”, the protease stability score falls from 0.445 to 0.032.

First: DDDNVRKYVELMHEGDNEQLVRLADPNVRLQVGDKQYDGREDFEHHLRQIHTQADHFQVQDYHFEGDKAVMDVVMTVNGHQFRFKIHVEVRNGEVKQVQWDFTDPNQRDRFRNNLS
Second: DDDQARKFVNIVQTGDEDKLLELAPPDVRVKVGDHRVHGRENVKRMVEKLKKSVDHFSIRQIHVHNGRVHVDMDVNVNGQTIRAEYVFVAHNGKLEEISIEVTDETVHDLMTRILS
The protease stability score of the first is lower: 0.611 for the first, 0.665 for the second.

Compared with “DDDQKRRVEDWWKVLNHGDPDKLRTLADENAKFDVGDKKYHGMTRAADELVRTLREIRLNIRRMEIQVHNGRVVANVDAEVRVNGNPMQIHYTAQMTASNGKITSVQNRIPSEQLKRLRK”, “DDDQLDRNATQMMEALQTGDEQTLNNLVDPDVRFHIGDKVVHGRDQWNEQVKKIRDRADRIHIKHVEAQGDKVRMEFVLNINGRNIRVRMEAEVHNGRFKVITFDPEQVKEMRK” is higher in protease stability score: 0.165 for the first, 1.19 for the second.

Compared with “DDDQLRKFLEILRSGNEDDMERQADKDARARVGDDHYHGREEVAHMIRNFLHRADHIEVKSVRFTGEKAKVDMHAVVNGQELRLIIEAEVHNGTLKHIVMKVTDEEHKRTLERAMS”, “DDDQNRRFKEMLEVRKTGDEHRLKQLLDPNARLNIGDKRIHGREEIARFMKTKFDESRSEVDVKDVKAHNGRISVTADFRNSSNGQPQRYTATMRATIHNGSFQEIQIDTEK” is lower in protease stability score: 0.29 for the first, -0.234 for the second.

First: DDDQQRQAEKIVRAIRHGNEQEVDELVDENVRIEYGDKVVHGRSQLRKKMQDEKRHIRQDIKVDTVKEDGDKALIHFKNNFTVNGTPTTNTYSYEVEFTNGRAKELRIRVDPQEVRKQEK
Second: DDDQRKDYERFLRWQEENDPRKVAEQADPNARFRYGDKHVQGREEQSRRFDEQRKDARWDLDIKRVNVEGNKITVHFKMQMDRNGKPDSRDATRTIEYDNGRIQRDEVKVSS
The protease stability score of the first is higher: -0.118 for the first, -0.231 for the second.

Compared with “DDDQRRKAAQRAHELVKTGDPEEIEKLADKHARIQVGDKRVQGREEAKKIMKEFRERVDHIRISDVQVDGDKIKVDVVVVHNGTKKHVVFVFRVHNGKATEISLEDK”, “DDDQRRKFERFITAVRTGSKEDLNKLIDPNAKINVGNHRYHGMEEFAKQVVTHNKDLRFHVRFKELDFSGNRVRVSYEMTMTVNGKPYQFTARVEFDVHDGSVKSVREQISEDVEQRQRN” is higher in protease stability score: 0.027 for the first, 0.423 for the second.

First: DDDQSRKLKKLFDNNNWDTLQDNADKNANIEVGNKELHGREDAEQLSEKFRDQVDHLTIESIDISGDRVIVTFVVNVNGQRVKYRVVVEAHNGRVKRMRFEFTNPEERKQYDEQLG
Second: DDDQVRKYQHWLQEQEKGNEESLMEKMDPNVRIRVGNNEVHGREQAAHDIRKTQQEIRVQIDFKSVDAHNGRFDFKFTAQFEVNGTPFRYSASATVVAHNGHIKRVEIRVDPEVQRKRNK
The protease stability score of the first is higher: 0.899 for the first, -0.079 for the second.

Going from “DDDRKARDFWRKFKEVLDKGDSEENDKLVDENAKFEYGDKTLHGREDAMRWNKHLTTRVDHLRMEVEDFKVHNGKIDVQVRLDVNVNGQQRQHDVKLVAEIDGDKVKLHSLTVK” to “DDDRRRQAEEILKIFETGDPQKLRSQFDPNARMHYGDKTIHGMEHAAESMERWQNEMRIELKSYSFRKQGDKVQIDAHFVVHHNGKPDTVKIHIRMELDGDKVREVSVEHTQ”, the protease stability score rises from 0.009 to 1.2.

First: DDDRVETVAQELAEAIMENDEDRAREMVDPNARIVYGEKDLHGREAFHTVMQLFQHRVDRVDLETVSVHNGRVKFEAVLKHNGTEHRVVFIVDAHNGKAKQVEVRDQ
Second: DDDSQNEFLQRVAEAIVTGDEKSLVRMMDPNARANVGDKQFHGREQMARWARELRERVDHLQVDDLQNHNGRLHMDIQFKDNGKNKHFIIQVEAHNGKVTKMSADEK
The protease stability score of the first is lower: 0.862 for the first, 1.36 for the second.

Going from “DDDTDRKVAEDAWRAFEKGDHKRLIELMDKDAEVQVGNRRVSGREKAAHEMVRMVERADHISVKSIDIRGDKATIKFQVNVNGHNQEAKVVFRVQNGRVQEVKFDPTMEKALRT” to “DDDTTAKKAIDDFIENFEHGDPKEADKQADENVRVEYGDKEVDGRHQMAHWLVKLVERVDHVRWHIHEVRMDNGKINVIFENKQKFDGRTEDREFHMTADTRDGRIQLTSVHEK”, the protease stability score falls from 1.39 to 0.491.

Going from “DDDVLRKVERLIEVENEGNEDEARELMDPNAEFQVGDKSVHGREEYASNMKKEQKELKIEIHHVTQSVHNGEADVHLTMRVNDNGRPKEQHYHATFEAHNGRIVYVKKQMRG” to “DDDVMRRLLKWVKNGDWDVLAENADPNVRVNIGDFRVHGREQFKEWADKLHKKVDHFHYRDVKVNGDRVRFDFIEHFNGKTIDMDMTARAHNGRITSLDVNVRSEDDKHAFKELVS”, the protease stability score rises from -0.099 to 1.1.

Going from “DDDVVRKAHSFFRQYQRGNPDHLLKMMDPNARVRYGDKTYQGREDLKEILQHQLDRIRIRVKRMSLRAENGHLNVEVDEVLEHNGEPRRATADVKVTWRNGRIHEMQVVWRG” to “DDEAKDIVEEVVREGDFRQHMRLADEDAKLEYGDKRLHGRERVSDMAQKINERVDHLEVESVSVRGEEVIITLVLNVDGQKFRMKLVMDVQGDKIKSVKLEARTEDNKKLMDRAFS”, the protease stability score falls from 0.27 to 0.012.
